From the nanobody polyreactivity screen of Harvey et al. (2022)

Assay: yeast display, Sf9 membrane polyspecificity reagent, FACS + sequencing; frameworks hold sequencing errors
Procedure, shortened: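 Galactose induction of a Saccharomyces cerevisiae BJ5465 synthetic nanobody display library ran 36–48 hours. The cells were then stained for 1 hour at 4 °C with 10% biotinylated, detergent-solubilized Sf9 membrane reagent, pulled down on streptavidin microbeads and FACS-sorted into low and high (top ~1%) gates on expression and reagent-binding fluorescence. Labels for polyreactivity follow the gate of origin.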

Row | Sequence | polyreactivity (PSR sort gate)
1 | QDQLVESGGGLVQAGGSLRLSCAASGFTFRRYAMGWYRQAPGKERELVAAISYTGGITYYADSVKGRFTISRDNAKNTVYLQMNSLKPEDTAVYYCAAESVWTWDYTTAGMDYWGQGTQVTVSS | high polyreactivity
2 | QVQLVESGGGLVQAGGSLRLSCAASGFIFNRNAMGWYRQAPGKERELVAGINSGGTTKYADSVKGRFTISRDNAKNTVYLQMNSLKPEDTAVYYCNRDWWWDHGRWYRTSRYDYWGQGTQVTVSS | low polyreactivity
3 | QVQLVETVVGLVQAGGSLRLSCAASGSIFGFYDMGWYRQAPGKERELVAVISVSDGSTYYADSVKGRFTISRDNAKNTVYLQMNSLKAEDTAVYYCAATPRGSYGYYYWGQGTQVTVSS | low polyreactivity
4 | QVQLVESVGGLVQSGGSLRLSCAASGFTFYRYGIGWYREAPGKERELVAAITSGGITYYADSVKGRFTISRDNAKNTVYLQLNSLKPEDTAVYYCNAVYPVAAIVRYDYWGQGTQVTVSS | high polyreactivity
5 | QVQLVESGGGLLQAGGSLRLSCAASGSILDGNAMGWNRQAPGKERELVAAISYSGGSTYYADSVKGRFTISRDNAKNTVYLQIYSLKPEDTAVYYCAAGSISTPGRGVDKPDAYVYWGQGTQVTVSS | low polyreactivity
6 | QDQLVESGGGLVQAGGSLRLSCAASGRIFDRYAMGWYRQAPGKERELVAAISGRTGSTYYADSVKGRFTISRDNAKNTVYLQMNSLKPEDTAVYYCAKRSYWDGVRYDYWGQGTQVTVSS | high polyreactivity
7 | QVQLVESGGGLVQAGGSLRLSCAASGRIFDLNAMGWYRQAPGKERELVAVITGSGGSTYYADSVKGRFTISRDNAKNTVYLQMNSLKPEDTAVYYCNAYTQQYRSYGYWGQGTQVTVSS | low polyreactivity
8 | QVQLVESGGGLVQAGGSLRLSCAASGSTFGRYAMGWYRQAPGKERELVAAISRRGGSTYYADSVKGRFTISRDNAKNTVYLQMNSLKPEDTAVYYCATGYPIDLGREFDYWGQGIQVTVSS | high polyreactivity
9 | QVQHVESGGGLVQAGGSLRLSCAASVSTFEYYAIGRYRQAPGKERELVASISSGGSTYYADSVKGRFTISRDNAKNTVYLQMNSLKPEDTAVYYCAADSYYGYEYWGQGTQVTVSS | low polyreactivity
10 | QVQLVESGGGLVQAGGSLRLSCAASGSTFRYYAMGWYRPAPGKERELVAAINSSGGSTYYADSVKGRFTISRDNAKNTVYLQMNSLKPEDTAVYYCATVYAYTGWLTNPREYSRYDYWGQGTQVTVSS | low polyreactivity
11 | QVQLVESGGGLVQAGRSHRLSCAASGFTFFDNAMGWYRQAPGKERELVAAITWSDGSTYYADSVKGRFTISRDNAKNTVYLQMNSLKPEDTAVYYCNKRGWWDLRHDYWGQGTHVTVSS | low polyreactivity
12 | QVQLVESGGGLVQAGGSLRLSCAASGSTFPPNAMGWYRQAPGKESELVAAISFSSGRTYYADSVKGRFTISRDNAKNTVYLQMNSLKPEDTAVYYCAADHGYWGQGTQVTVSS | low polyreactivity
13 | QFQLVESGGGLVQAGGSLRLSCAASGITFYGNAKGWYRQAPGKVREFVAAITVDGGSTYAVSVKGRFTISRDNAKNTVYLQMNSLKPEDTAVYYCNKAYLRRSLKSGYPYDSWGQGTQVTVSS | low polyreactivity
14 | QVQLVESGGGLVQAGGSLRLSCAASGRTLVSNAMGWYRQAPGKERELVARISYRGGSTYYADSVKGRFTISRDNAKNTVYLQMNSLKPEDTAVYYCAAGVRGSGRRMEYWGQGTQVTVSS | high polyreactivity
15 | QVQLVESGGGLVQAGGSLRLSCAASGSTLAGYAMGWYRQAPGQERELVAAIDWTGGSTTYADSVKGRFTISRDNAKNTVYLQMNSLKPEDTAVYYCNVDLGVNCEYWGQGTQVTVSW | low polyreactivity
16 | QVQLVESGVGLVQAGGILRLSCAASGFIFCQYSMGWYRQAPWKERELVAAISSVGTTNYADSVKGSFTISRDNAKNTVYLQMNSLKPEDTAVYYCNADSLVEYWDYDYWGQGTQVTVSS | low polyreactivity
17 | QVQLVESGGGLVQAGGSLRLSCAASGSTFTSYDMGWYRQAPGKERELVAAITISSGGTYYADSVKGRFTISRDNAKITVYLQMNSLKPEDTAVYYCAADIFADASYDYWGQGTQVTVSS | low polyreactivity
18 | QVQLVESGGGLVQAGGSLRLSCAYSGRTICSNAMGWYRQAPGKESELVARIDSTYYADSVKGRFTISRDNAKNTVYLQMNSLKPEDTAVYYCAADAWDHWTWFYPTNGMDYWGQGTQVNVSS | low polyreactivity
19 | QVQLVESGGGLVQAGGSLRLSCAASGRIFWGNALGWYRQAPGKVRELVAAITRRGGTTFYADSVKGRFTISRDNAKNTVYLQKNSLKPEDTAGYYCAARRYCQYDGYDSGGQGTQVTVSS | high polyreactivity
20 | QVQLVESGGGLVQAGGSLRLSCAASGSTFVNNAMGWYRQAPGKERELVAAIRSSGGSTYYADSVKGRFTISRDNAKNTVSLQMNSLKPEDTAVYYCNADRWKYELDYWGQGTQVTVSS | high polyreactivity
21 | QVQLVESGGGLVQAGCSLRLTCAASGFTFYKYAMGWYRQAPGKERELVAAISRRGTSTYYADAVKGRFTISRDNAKNTVYLQMNSLKPEDTAVYYCNRDVSLSAFDYWGQGTQVTVSS | high polyreactivity
22 | QVQLVESGGGLVQAGGSLRLSCAASGRIFEHNTMGWYRQAPGKERELVAAINWRGGSTYYADSVKGRFTISRYNAKNTVYLQMNSLKPEDTAVYYCNKYWWSYSYASGYNYWGQGTQVTVSS | high polyreactivity

Row | Sequence | polyreactivity (PSR sort gate)
23 | QVQLQESGGALVQAGGSLRLSCAASGTISDRAGMGWYRQAPAKNANVATIDRGTNTNYADSVKGRFTISRDNAKNTVYLQMNSLKPEDTAVYNCAADGRYYIYLDYWGQGTQVTVSS | low polyreactivity
24 | QVQLVESGGGLVQAGGSLRLSCAASGIIFIYYVMGWYRQAPGKERELVAAISRSGGSTYYADSVKGRFTISRDNAKNTVNLQMNSLKPEDTAVYYCAARRITSTDEYYWGQGTQVTVSS | high polyreactivity
25 | QVQLVESGGGLVQAGGSLRLSCAASGSTFDIYAMGWYRQAPGKERELVAAITVSGGSTYYADSVKGRFTISRDNAKNTVYLQMNSLKPEDTAVYYCNADWSGWQGWYNYWGQGTQVTVSS | low polyreactivity
26 | QVQLVESGGGLDQAGGSLRLSCAASGSTFESNAMGWYRQAPGKERELVAAISWRVGSTYYADSVKGRFTISRDNAKNTDYLQMHSLKPEDTAVYYCASKGWYSHYGGYDYWGQGTQVTVSS | low polyreactivity
27 | QVQLVESGGGLVQAGGSLRLSCAASGRIFWYYVMGWSRQAPGKEREFVASISSGGSTYYADSVKGRFTISRDNAKNTVYLQMNSLKPEDTAVYYCNAYVYGQRVWYDYWGQGTQVTVSS | high polyreactivity
28 | QVQIVESGGGLVQAGGSLRLSCAASGSIFPINAMGWYRQAPGKERELVAVITSGGGGTYYADCVKGRYTISRDNAKNTVYLQMNSLKPEDPAGYYCAKRLSRKWQKFGYWGQGTQVTVSS | low polyreactivity
29 | QVQLVESGGGLVQSGGSLRLSCAASGSTFSINPMGWYRQAPGKERELFAAITWRGVRTYYADSVKGRFTISRDNAKNTVYFQMNSLKPEDTAVYYCAADVVVAGHPGFDYWGQGTQVTVSS | high polyreactivity
30 | QVQLVESGGGLVQAGGSLRLSCAASGFTFSYNAMGWYRQAPGKERELVAAITYSAGNTYYADSVKGRFTISRDNAKNTVYLQMNSLKPEDTAVYYCNAVTKHRAITNMDYWGQGTQVTVSS | high polyreactivity
31 | QVQLVESGGGLVQAGGSLRLSCAASGRTFEGNAMGWYRQAPGKERELVAAITSGGRTNYADSVKGRFTISRDNAKNTVYLQMNSLKPEDTAVYYCAVETRDRSTYFPGQAYDYWGQGTQVTVSS | low polyreactivity
32 | QVQLVESGGCLVQAGGSLRLSCAASGRTFYGYAMGWYRQAPGKERELVATITSGGSTNYADSVKGRFTISRDNAKNTVYLQMNSLKPEDTAVYYCAATTRLYGRHRRYNYWGQGTQVTVSS | high polyreactivity
33 | QVQLVESGGGLVQAGGSLRLSCAASGRIFFIYAMGWYRPAPGKERELVAAISSSGGTTYYADSVKGRFTISRDNAKNTVYLQMNSLKPEDTAVYYCAARSAATHWTFLFYYDFDYWGQGSQVTVSS | low polyreactivity
34 | QVQLVESAGGLVQAGGSLRLSCAASGRIFVRYAKGRYREAPGKVRELVAAISSSGSSTYYADSVKRRFTISRDNASNTVYLQMNSLKPEDTAVYYCNAVPSVRWRYDYWGQGTQVTVSS | high polyreactivity
35 | QVQLVESGGGLVQAGGSLRLSCAASGGTFGRYAMGWYRQAPGKERELVASITTGGRTNYADSVKGRFTISRDNAKNTVYLQMNSLKPEDTAVYYCAKKRYGYPVPFYYWGQGTQVTVSS | high polyreactivity
36 | QVQLVDSGGGLVQAGGSLRLSCAPSGYIFPYNAMGWYRQAPGKEREFVAAITSSGGSTYYADSVKGRFTISRENAKNTVYLQMNSLKPEDTAVYYCARVPLHRYGYWGQGTQVNVSS | high polyreactivity
37 | QVQLVESGGGLVQAGGSLRLSCAASGFTFDYYAMGWYRQAPGKERELVAAISWSGSTTYYADSVKGRFTISRDNAKNTVYLQMNSLKPEDTAVYYCATNLDRPFDYWGQGTQVTVSS | high polyreactivity
38 | QVQLVESGGGLVQAGGSLRLSCAASGRIFARYAMGWYRQAPGKERELVAAITNVGSTYADSVKGRFTISRDNAKNTVYLQMNSLKPEDTAVYYCAARSKYDQVRATFWLFDYWGQGTQVTVSS | low polyreactivity
39 | QVQLVDSGGGLVQAGGSLRLSCAASGSITYYAMGWYRQAPGKERELVAAISSSGGSTYYADSVKGRFTISRDNAKNTVYLQMNSLKPEDTAVYYCAAYGRYGAHTGYGSWGQGTQVTVSS | high polyreactivity
40 | QVQLVESGGGLVQAGGSLRLSCAASGSTFASNTMGWYRQAPGKERELVAAITQSGGTTYYADSVKGRFTISRDNAKNTVYLQMNSLKPEDTAVYYCAADATFIIRYLSRSDYWGQGTQVTVSS | low polyreactivity
41 | QVQLVESGGGLVQAGGSLRLSCAASGLTLRWYDMGWYRQAPGKERELVAAITTNGGSTYYADSVKGRFTISRDNAKNTVYLQMNSLKPEDTAVYYCAALYWRSTVGAYSTYEYDYWGQGTQVTVSS | high polyreactivity
42 | QVQLVESGGGLVQAGGSLRLSCAASGSTFWSNVMGWYRQAPGKESELVSAISYGGVTTSYADSVKGRFTISRDNAKNTVYLQKNSLKPEDTAVYYCATDYVGYYFYVSDYWGQGTQVTVSS | low polyreactivity
43 | QVQLVESGGGIVQAGGSLRLSSAASGLTFAYNTMGWYRQAPGIEREFVASISSSGGNTYYADSVKGRFTISRDNAKNTVYLQMHSLKPEDTAVYYCAAKKKYHYVATYKRFENWGQGTHVTVSS | low polyreactivity
